US20180346600A1 (AJOU UNIVERSITY INDUSTRY ACADEMIC COOPERATION FOUNDATION, published 2018)

B1: secreted FcCH3B, W-VT (D399V/F405T), from yeast (other)
chain: TSPPSPAPELLGGPSVFLFPPKPKDTLMISRTPEVTCVVVDVSHEDPEVKFNWYVDGVEVHNAKTKPREEQYQSTYRVVSVLTVLHQDWLNGKEYKCKVSNKALPAPIEKTISKAKGQPREPQVYTLPPSRDELTKNQVSLTCLVKGFYPSDIAVEWESNGQPENNYKTTPPVLVSDGSFTLYSKLTVDKSRWQQGNVFSCSVMHEALHNHYTQKSLSLSPGK
notes: also called W-VT CH3B chain (yeast); not shown: flag-tag
B2: secreted FcCH3B, EW-RVT (Q347R/D399V/F405T), from yeast (other)
chain: TSPPSPAPELLGGPSVFLFPPKPKDTLMISRTPEVTCVVVDVSHEDPEVKFNWYVDGVEVHNAKTKPREEQYQSTYRVVSVLTVLHQDWLNGKEYKCKVSNKALPAPIEKTISKAKGQPREPRVYTLPPSRDELTKNQVSLTCLVKGFYPSDIAVEWESNGQPENNYKTTPPVLVSDGSFTLYSKLTVDKSRWQQGNVFSCSVMHEALHNHYTQKSLSLSPGK
notes: also called EW-RVT CH3B chain (yeast); not shown: flag-tag
B3: FcCH3B, B240 (D399G/K392G/K409M) (other)
chain: TCPPCPAPELLGGPSVFLFPPKPKDTLMISRTPEVTCVVVDVSHEDPEVKFNWYVDGVEVHNAKTKPREEQYNSTYRVVSVLTVLHQDWLNGKEYKCKVSNKALPAPIEKTISKAKGQPREPQVYTLPPSRDELTKNQVSLTCLVKGFYPSDIAVEWESNGQPENNYGTTPPVLGSDGSFFLYSMLTVDKSRWQQGNVFSCSVMHEALHNHYTQKSLSLSPGK
notes: also called B240 CH3B chain
B4: FcCH3B, EW-RVT (Q347R/D399V/F405T) (other)
chain: TCPPCPAPELLGGPSVFLFPPKPKDTLMISRTPEVTCVVVDVSHEDPEVKFNWYVDGVEVHNAKTKPREEQYNSTYRVVSVLTVLHQDWLNGKEYKCKVSNKALPAPIEKTISKAKGQPREPRVYTLPPSRDELTKNQVSLTCLVKGFYPSDIAVEWESNGQPENNYKTTPPVLVSDGSFTLYSKLTVDKSRWQQGNVFSCSVMHEALHNHYTQKSLSLSPGK
notes: also called EW-RVT CH3B chain
B5: FcCH3B, B256 (D399V/K392G/K409M) (other)
chain: TCPPCPAPELLGGPSVFLFPPKPKDTLMISRTPEVTCVVVDVSHEDPEVKFNWYVDGVEVHNAKTKPREEQYNSTYRVVSVLTVLHQDWLNGKEYKCKVSNKALPAPIEKTISKAKGQPREPQVYTLPPSRDELTKNQVSLTCLVKGFYPSDIAVEWESNGQPENNYGTTPPVLVSDGSFFLYSMLTVDKSRWQQGNVFSCSVMHEALHNHYTQKSLSLSPGK
notes: also called B256 CH3B chain
B6: FcCH3B, B235 (D399C/K392G/K409M) (other)
chain: TCPPCPAPELLGGPSVFLFPPKPKDTLMISRTPEVTCVVVDVSHEDPEVKFNWYVDGVEVHNAKTKPREEQYNSTYRVVSVLTVLHQDWLNGKEYKCKVSNKALPAPIEKTISKAKGQPREPQVYTLPPSRDELTKNQVSLTCLVKGFYPSDIAVEWESNGQPENNYGTTPPVLCSDGSFFLYSMLTVDKSRWQQGNVFSCSVMHEALHNHYTQKSLSLSPGK
notes: also called B235 CH3B chain
B7: FcCH3B, B215 (D399W/K392G/K409M) (other)
chain: TCPPCPAPELLGGPSVFLFPPKPKDTLMISRTPEVTCVVVDVSHEDPEVKFNWYVDGVEVHNAKTKPREEQYNSTYRVVSVLTVLHQDWLNGKEYKCKVSNKALPAPIEKTISKAKGQPREPQVYTLPPSRDELTKNQVSLTCLVKGFYPSDIAVEWESNGQPENNYGTTPPVLWSDGSFFLYSMLTVDKSRWQQGNVFSCSVMHEALHNHYTQKSLSLSPGK
notes: also called B215 CH3B chain
B8: FcCH3B, B239 (D399S/K392G/K409M) (other)
chain: TCPPCPAPELLGGPSVFLFPPKPKDTLMISRTPEVTCVVVDVSHEDPEVKFNWYVDGVEVHNAKTKPREEQYNSTYRVVSVLTVLHQDWLNGKEYKCKVSNKALPAPIEKTISKAKGQPREPQVYTLPPSRDELTKNQVSLTCLVKGFYPSDIAVEWESNGQPENNYGTTPPVLSSDGSFFLYSMLTVDKSRWQQGNVFSCSVMHEALHNHYTQKSLSLSPGK
notes: also called B239 CH3B chain
B9: FcCH3B, B212 (D399G/K392G/K409M) (other)
chain: TCPPCPAPELLGGPSVFLFPPKPKDTLMISRTPEVTCVVVDVSHEDPEVKFNWYVDGVEVHNAKTKPREEQYNSTYRVVSVLTVLHQDWLNGKEYKCKVSNKALPAPIEKTISKAKGQPREPQVYTLPPSRDELTKNQVSLTCLVKGFYPSDIAVEWESNGQPENNYGTTPPVLGSDGSFFLYSMLTVDKSRWQQGNVFSCSVMHEALHNHYTQKSLSLSPGK
notes: also called B212 CH3B chain
B10: FcCH3B, B135 (K392S/K409L/D399V/F405T) (other)
chain: TCPPCPAPELLGGPSVFLFPPKPKDTLMISRTPEVTCVVVDVSHEDPEVKFNWYVDGVEVHNAKTKPREEQYNSTYRVVSVLTVLHQDWLNGKEYKCKVSNKALPAPIEKTISKAKGQPREPQVYTLPPSRDELTKNQVSLTCLVKGFYPSDIAVEWESNGQPENNYSTTPPVLVSDGSFTLYSLLTVDKSRWQQGNVFSCSVMHEALHNHYTQKSLSLSPGK
notes: also called B135 CH3B chain
B11: FcCH3B, A108 (E357I/S364T/D399V/F405T) (other)
chain: TCPPCPAPELLGGPSVFLFPPKPKDTLMISRTPEVTCVVVDVSHEDPEVKFNWYVDGVEVHNAKTKPREEQYNSTYRVVSVLTVLHQDWLNGKEYKCKVSNKALPAPIEKTISKAKGQPREPQVYTLPPSRDILTKNQVTLTCLVKGFYPSDIAVEWESNGQPENNYKTTPPVLVSDGSFTLYSKLTVDKSRWQQGNVFSCSVMHEALHNHYTQKSLSLSPGK
notes: also called A108 CH3B chain
B12: FcCH3B, B121 (K392E/D399V/F405T) (other)
chain: TCPPCPAPELLGGPSVFLFPPKPKDTLMISRTPEVTCVVVDVSHEDPEVKFNWYVDGVEVHNAKTKPREEQYNSTYRVVSVLTVLHQDWLNGKEYKCKVSNKALPAPIEKTISKAKGQPREPQVYTLPPSRDELTKNQVSLTCLVKGFYPSDIAVEWESNGQPENNYETTPPVLVSDGSFTLYSKLTVDKSRWQQGNVFSCSVMHEALHNHYTQKSLSLSPGK
notes: also called B121 CH3B chain
B13: FcCH3B, B168 (K392G/K409M/D399V/F405T) (other)
chain: TCPPCPAPELLGGPSVFLFPPKPKDTLMISRTPEVTCVVVDVSHEDPEVKFNWYVDGVEVHNAKTKPREEQYNSTYRVVSVLTVLHQDWLNGKEYKCKVSNKALPAPIEKTISKAKGQPREPQVYTLPPSRDELTKNQVSLTCLVKGFYPSDIAVEWESNGQPENNYGTTPPVLVSDGSFTLYSMLTVDKSRWQQGNVFSCSVMHEALHNHYTQKSLSLSPGK
notes: also called B168 CH3B chain
B14: FcCH3B, A109 (E357M/S364W/D399V/F405T) (other)
chain: TCPPCPAPELLGGPSVFLFPPKPKDTLMISRTPEVTCVVVDVSHEDPEVKFNWYVDGVEVHNAKTKPREEQYNSTYRVVSVLTVLHQDWLNGKEYKCKVSNKALPAPIEKTISKAKGQPREPQVYTLPPSRDMLTKNQVWLTCLVKGFYPSDIAVEWESNGQPENNYKTTPPVLVSDGSFTLYSKLTVDKSRWQQGNVFSCSVMHEALHNHYTQKSLSLSPGK
notes: also called A109 CH3B chain
B15: FcCH3B, A107 (E357N/D399V/F405T) (other)
chain: TCPPCPAPELLGGPSVFLFPPKPKDTLMISRTPEVTCVVVDVSHEDPEVKFNWYVDGVEVHNAKTKPREEQYNSTYRVVSVLTVLHQDWLNGKEYKCKVSNKALPAPIEKTISKAKGQPREPQVYTLPPSRDNLTKNQVSLTCLVKGFYPSDIAVEWESNGQPENNYKTTPPVLVSDGSFTLYSKLTVDKSRWQQGNVFSCSVMHEALHNHYTQKSLSLSPGK
notes: also called A107 CH3B chain
B16: FcCH3B, A146 (E357M/D399V/F405T) (other)
chain: TCPPCPAPELLGGPSVFLFPPKPKDTLMISRTPEVTCVVVDVSHEDPEVKFNWYVDGVEVHNAKTKPREEQYNSTYRVVSVLTVLHQDWLNGKEYKCKVSNKALPAPIEKTISKAKGQPREPQVYTLPPSRDMLTKNQVSLTCLVKGFYPSDIAVEWESNGQPENNYKTTPPVLVSDGSFTLYSKLTVDKSRWQQGNVFSCSVMHEALHNHYTQKSLSLSPGK
notes: also called A146 CH3B chain

Target: T1, displayed FcCH3A, W-VT (K409W), on yeast cell surface (human, UniProt P0DOX5 227-449 = IgG part)
T1 construct: EU 226 and 229 counted from the entry's start at EU 225; also called W-VT CH3A chain (yeast)
T1 Fc: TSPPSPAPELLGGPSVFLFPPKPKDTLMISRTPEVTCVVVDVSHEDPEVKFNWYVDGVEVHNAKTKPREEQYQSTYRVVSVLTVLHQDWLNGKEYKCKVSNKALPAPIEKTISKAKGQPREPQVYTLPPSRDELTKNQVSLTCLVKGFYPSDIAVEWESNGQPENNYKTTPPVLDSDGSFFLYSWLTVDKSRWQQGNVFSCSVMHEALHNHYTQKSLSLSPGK
Assay: flow cytometry histogram (PE, FL2-H) of diploid yeast: Flag-tagged secreted FcCH3B held on displayed FcCH3A, anti-Flag mouse mAb and PE anti-mouse antibody
Protocol: Specifically, the diploid in which the expression of the heterodimeric heavy chain constant region was induced was reacted with an antibody recognizing flag-tag included in the secreted FcCH3B (anti-Flag mouse mAb, F3165) (Sigma-Aldrich) and an antibody conjugated with PE (phycoerythrin conjugated anti-mouse mAb, sc-3738) (Santa Cruz biotechnology), and a signal of PE was analyzed by flow cytometry.

B1: binds.

Target: T2, displayed FcCH3A, EW-RVT (K360E/K409W), on yeast cell surface (human, UniProt P0DOX5 227-449 = IgG part)
T2 construct: also called EW-RVT CH3A chain (yeast)
T2 Fc: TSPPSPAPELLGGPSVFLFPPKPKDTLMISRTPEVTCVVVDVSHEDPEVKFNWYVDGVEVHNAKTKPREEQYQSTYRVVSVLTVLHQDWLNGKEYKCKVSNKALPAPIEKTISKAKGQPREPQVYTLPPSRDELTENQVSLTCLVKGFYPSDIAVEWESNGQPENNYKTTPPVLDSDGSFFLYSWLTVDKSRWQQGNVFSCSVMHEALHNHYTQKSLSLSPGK
Assay: flow cytometry of diploid yeast: MFI of Flag-tagged secreted FcCH3B held on displayed FcCH3A (anti-Flag mouse mAb and PE anti-mouse antibody), normalised to EW-RVT = 100 %

B2: binds.

Target: the molecule itself
Assay: HEK293-F co-expression, Protein A purification, non-reducing SDS-PAGE densitometry
Description: The CH3 domain mutant pair of the individual clones selected from the LibA2 and LibB2 libraries in Example 8 above was cloned into an animal cell expression vector so that the CH3A mutant was expressed into the scFv-FcCH3A format and the CH3B mutant was expressed into the FcCH3B format.
The EW-RVT and A107_{w/oW-VT}, B168_{w/oW-VT} mutant pairs were used as control groups.

Point of comparison: B9, “(FC)2 (homodimer)(%)” value 33.8%. Against it:
- B3 — lower, 11.9%
- B4 — lower, 1.6%
- B5 — lower, 16.7%
- B6 — lower, 6.9%
- B7 — lower, 20%
- B8 — lower, 20.3%

Target: the molecule itself
Assay: as above
Remark: another data set of the same source
Description: The pcDNA3.1 (+)-scFv-FcCH3A and pcDNA3.1 (+)-FcCH3B animal cell expression vectors that were constructed using the HEK293-F system (Invitrogen) were used to produce antibodies by transient transfection, and the heterodimer formation ability was compared. Specifically, a mixture of an expression vector and polyethylenimine (PEI) (Polyscience) was transfected into HEK293-F cells (Invitrogen) that were suspension-grown on a serum-free FreeStyle 293 expression medium (Invitrogen) in a shaking flask (Corning). When transfecting 30 ml of the mixture in the shaking flask, HEK293-F cells were seeded at a density of 1.0×10⁶ cell/ml in 30 ml of medium and cultured at 125 rpm and 8% CO₂. […] Then, the reacted mixed medium was added to 30 ml of the previously seeded cells and cultured at 125 rpm and 8% CO₂ for 6 days. The cell culture supernatant collected with reference to the standard protocol was applied to Protein A Sepharose column (GE healthcare), washed with PBS (pH 7.4). The antibody was eluted at pH 3.0 with 0.1 M glycine buffer and immediately neutralized with 1 M Tris buffer. The eluted antibody fraction was concentrated using an Amicon Ultra (MILLIPORE) centrifugal concentrator after the buffer was exchanged with PBS (pH 7.4) using a Dextran Desalting Column (Thermo Scientific Pierce). The purified antibody was quantified by BCA technique.
The W-VT and EW-RVT mutants were used as control groups.

Point of comparison: B14, “(Fc)2 (homodimer) (%)” value 5.8%. Against it:
- B10 — higher, 27.9%
- B11 — higher, 13%
- B12 — higher, 25.2%
- B4 — lower, 1.6%
- B13 — higher, 21.1%
- B15 — lower, 2.4%
- B16 — higher, 14.6%
